Values joined by “and” are separate entries in the source; they are usually repeats but may differ in a detail not shown here. Equal values may be shown once.
Target: human P2X7R ballast domain (P2X7BD, residues 395–595) (human) (UniProt Q99572)
Assay: cross-linking

Chain of human P2X7R ballast domain (P2X7BD, residues 395–595) (human) (Q99572 395-595): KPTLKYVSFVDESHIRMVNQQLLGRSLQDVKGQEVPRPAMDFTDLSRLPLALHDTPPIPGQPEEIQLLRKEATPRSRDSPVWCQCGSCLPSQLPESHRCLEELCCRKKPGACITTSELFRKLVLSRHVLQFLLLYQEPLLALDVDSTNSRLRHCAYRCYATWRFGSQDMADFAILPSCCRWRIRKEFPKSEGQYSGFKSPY

human calmodulin (Ca^2+-CaM; apo-CaM in EDTA) (from UniProt P0DP23 1-149) (natural protein)
stoichiometry N (Ca^2+-CaM per P2X7BD): 1 and 2

— paper PMC9574498
